Source: patent publication US8580932B2, “Method of thermostabilization of a protein and/or stabilization towards organic solvents” (Masarykova Univerzita, priority 2011, dated 2013)
Residue numbers refer to the chain shown, from its start. In names and notes the source's numbering stands.

Key:
[1] = Steady-state kinetics of haloalkane dehalogenases by isothermal titration calorimetry; type: biochemical; details: pH 8.6, 25° C.; for ar (relative activity): percentage of specific activity in glycine buffer
Protocol: Substrate to product conversion by the action of enzymes was carried out using VP-ITC isothermal titration microcalorimeter (MicroCal), by single injection method. The substrate 1-iodohexane was dissolved in 100 mM glycine buffer (pH 8.6) containing appropriate volume of organic solvent and equilibrated at 25° C. in the sample cell (1.4 ml). The reaction was initiated by injecting of 10 μl of 1 mg/ml enzyme solution dialyzed overnight against the same solution as used for dissolving of the substrate. The heat flow (μcal s^−1) was recorded as a function of time. The reaction rate was calculated according to the equation:
[formula] where V is the volume of the sample cell, [S] is substrate concentration and ΔH is the enthalpy of the conversion of substrate to product and was determined experimentally by titration of the substrate into the sample cell containing the enzyme. The evaluated rate of substrate depletion (−d[S]/dt), and corresponding substrate concentration were fitted by nonlinear regression to kinetic models by using Origin 6.1 software (OriginLab, Massachusetts, USA). Results

[2] = Kinetic half-life assay of DhaA variants in 40% (v/v) DMSO; type: biochemical, Rhodococcus rhodochrous NCIMB 13064; details: 60 mM glycine buffer (pH 8.6), 37° C.
[3] = Haloalkane dehalogenase activity assay in the presence of organic solvents; type: biochemical; details: 100 mM glycine buffer (pH 8.6), 37° C., 1-iodohexane (FIG. 12)
Protocol: Haloalkane dehalogenase activity was assayed at 37° C. by a previously described method (Iwasaki, I., Utsumi, S., and Ozawa, T. 1952: New colorimetric determination of chloride using mercuric thiocyanate and ferric ion. Bulletin of the Chemical Society of Japan 25: 226-226). The released halide ions were analysed spectrophotometrically at 460 nm after a reaction with mercuric thiocyanate and ferric ammonium sulphate. The reaction mixture was composed of 100 mM glycine buffer (pH 8.6), 2 μl of substrate 1-iodohexane and appropriate amount of organic solvent. Solvent concentration was increased until the enzyme activity dropped below fifty per cent. The reaction was initiated by the addition of enzyme in a final concentration of 0.15 μM. The reaction was monitored by withdrawing samples at periodical intervals from the reaction mixture. The samples were immediately mixed with 35% nitric acid to terminate the reaction. Dehalogenation activity was quantified as a rate of product formation in time. Each activity was measured in 3-5 independent replicates and expressed as mean values of relative activity, represented percentage of activity in pure buffer.

[4] = 12 different substrates; cited from earlier work
[5] = type: physicochemical, Sphingobium japonicum UT26; details: for ΔTm: compared to the wild type LinB; for Tm: ellipticity at 222 nm, 20 to 80° C., 1° C./min, 50 mM potassium phosphate buffer (pH 7.5)
Protocol: Circular dichroism spectra were recorded at 20° C. using a Jasco J-810 spectrometer (Jasco, Tokyo, Japan) coupled with Peltier temperature controller. Data were collected from 185 to 260 nm, at 100 nm/min, 1 s response time and 2 nm bandwidth using a 0.1 cm quartz cuvette containing the enzyme variant in 50 mM potassium phosphate buffer (pH 7.5). Each spectrum shown is the average of ten individual scans and was corrected for absorbance caused by the buffer. CD data were expressed in terms of the mean residue ellipticity (ΘMRE) using the equation: […]
Thermal unfolding of LinB enzyme variants was followed by monitoring the ellipticity at 222 nm over the temperature range of 20 to 80° C., with a resolution 0.1° C., at a heating rate 1° C./min. Recorded thermal denaturation curves were roughly normalized to represent signal changes between approximately 1 and 0 and fitted to sigmoidal curves using software Origin 6.1 (OriginLab, Massachusetts, USA). The melting temperatures (Tm) were evaluated as a midpoint of the normalized thermal transition.

[6] = formamide 5% (v/v), 1-iodohexane

B1: DhaA: haloalkane dehalogenase DhaA from Rhodococcus rhodochrous NCIMB13064 (protein, UniProt P0A3G2 1-293, looked up)
Haloalkane dehalogenase: MSEIGTGFPFDPHYVEVLGERMHYVDVGPRDGTPVLFLHGNPTSSYLWRNIIPHVAPSHRCIAPDLIGMGKSDKPDLDYFFDDHVRYLDAFIEALGLEEVVLVIHDWGSALGFHWAKRNPERVKGIACMEFIRPIPTWDEWPEFARETFQAFRTADVGRELIIDQNAFIEGALPKCVVRPLTEVEMDHYREPFLKPVDREPLWRFPNELPIAGEPANIVALVEAYMNWLHQSPVPKLLFWGTPGVLIPPAEAARLAESLPNCKTVDIGPGLHYLQEDNPDLIGSEIARWLPAL
K0.5 (concentration of substrate at half maximal velocity) [1, 6]: 4.2 µM | Ksi (substrate inhibition constant) [1, 6]: 0.6 mM | nH (Hill coefficient) [1, 6]: 2.0 | ar (relative activity) ([1]; formamide 5% (v/v)): 130% | ar (relative activity) ([1]; glycine buffer (reference)): 100% | K0.5 (concentration of substrate at half maximal velocity) ([1]; glycine buffer, 1-iodohexane): 8.5 µM | Ksi (substrate inhibition constant) ([1]; glycine buffer, 1-iodohexane): 1.1 mM | kcat ([1]; glycine buffer, 1-iodohexane): 0.9 s⁻¹ | nH (Hill coefficient) ([1]; glycine buffer, 1-iodohexane): 2.0 | deactivation in the presence of DMSO [2]: proceeded rapidly | Specific activity in glycine buffer [3]: 0.0355 μmol s^−1 mg^−1 of enzyme

B2: L177P: LinB variant in the position 177 (protein, UniProt D4Z2G1 2-296, looked up, variant L177P)
Haloalkane dehalogenase: SLGAKPFGEKKFIEIKGRRMAYIDEGTGDPILFQHGNPTSSYLWRNIMPHCAGLGRLIACDLIGMGDSDKLDPSGPERYAYAEHRDYLDALWEALDLGDRVVLVVHDWGSALGFDWARRHRERVQGIAYMEAIAMPIEWADFPEQDRDLFQAFRSQAGEELVLQDNVFVEQVLPGPILRPLSEAEMAAYREPFLAAGEARRPTLSWPRQIPIAGTPADVVAIARDYAGWLSESPIPKLFINAEPGALTTGRMRDFCRTWPNQTEITVAGAHFIQEDSPDEIGAAIAAFVRRLRPA
activity with tested substrates [4]: did not show activity with any of tested substrates

B3: L177K: LinB variant in the position 177 (protein, UniProt D4Z2G1 2-296, looked up, variant L177K)
Haloalkane dehalogenase: B2 Haloalkane dehalogenase with P176K
thermal stability compared to the wild type enzyme [5]: improvement in thermal stability | ΔTm [5]: 3.0 °C | Tm [5]: 51.01 ± 0.54 °C

B4: L177Q: LinB variant in the position 177 (protein, UniProt D4Z2G1 2-296, looked up, variant L177Q)
Haloalkane dehalogenase: B2 Haloalkane dehalogenase with P176Q
ΔTm [5]: 0.0 °C | Tm [5]: 48.08 ± 0.17 °C

B5: L177H: LinB variant in the position 177 (protein, UniProt D4Z2G1 2-296, looked up, variant L177H)
Haloalkane dehalogenase: B2 Haloalkane dehalogenase with P176H
ΔTm [5]: 0.8 °C | Tm [5]: 48.85 ± 0.28 °C

B6: L177M: LinB variant in the position 177 (protein, UniProt D4Z2G1 2-296, looked up, variant L177M)
Haloalkane dehalogenase: B2 Haloalkane dehalogenase with P176M
ΔTm [5]: −0.3 °C | Tm [5]: 47.78 ± 0.17 °C
